Substitutions are numbered along the chain they refer to. Numbers in names are those of the source. Where “and” joins values, the source holds several entries; their conditions need not be identical. Equal entries are not always repeated. Structures can show the parent of a compound that is named as a salt. Where two headings read alike, the source gives them in different places.
Tests used:
βAR-m23 [1] = target: T1, βAR-m23 (Meleagris gallopavo, UniProt P07700, A282L/C116L/F327A/F338M/M90V/R68S/Y227A); assay type: binding, turkey
βAR-m23 [2] = target: T1, βAR-m23; assay: biochemical; assay type: binding, turkey
[3] = Thermostability assay of detergent-solubilised βAR34-424 and mutants expressed in E. coli ([3H]-DHA binding after heating 30 min); conditions: for increase in Tm compared to βAR34-424 (native protein) / Tm (° C.): DDM-solubilised; for increase in Tm compared to βAR34-424 (native protein): heated without ligand; for Tm (° C.): heated 30 min without ligand, then [3H]-DHA binding, E. coli, mean ± S.E. from duplicates; for further increase in Tm on adding one mutation to the preceding mutant: m4-1 to m4-7 to m4-2, m18 to m23
Method: To determine Tm in the absence of ligand (apo-state, discontinuous lines), detergent-solubilised receptors were incubated for 30 minutes at the temperatures indicated before carrying out the binding assay. […] Data points are from duplicates measurements in a representative experiment.
Binding assays were performed using [^3H]-dihydroalprenolol (DHA) as radioligand as described under “Methods”. Samples were heated for 30 minutes at different temperatures before the assay. […] Data points are from duplicates of one single experiment. This experiment has been repeated several times with similar results.
Expression of βAR and the mutants was performed in XL10 cells (Stratagene). Cultures of 50 ml of 2×TY medium containing ampicillin (100 μg/ml) were grown at 37° C. with shaking until OD600=3 and then induced with 0.4 mM IPTG. Induced cultures were incubated at 25° C. for 4 h and then cells were harvested by centrifugation at 13,000×g for 1 min (aliquots of 2 ml) and stored at −20° C. For the assays, cells were broken by freeze-thaw (five cycles), resuspended in 500 μl of buffer [20 mM Tris pH 8, 0.4 M NaCl, 1 mM EDTA and protease inhibitors (Complete™, Roche)]. After an incubation for 1 h at 4° C. with 100 μg/ml lysozyme and DNase I (Sigma), samples were solubilized with 2% DDM on ice for 30 minutes. Insoluble material was removed by centrifugation (15,000×g, 2 min, 4° C.) and the supernatant was used directly in radioligand binding assays.
Single point binding assays contained 20 mM Tris pH 8, 0.4 M NaCl, 1 mM EDTA, 0.1% DDM (or corresponding detergent) with 50 nM [^3H]-DHA and 20-100 μg membrane protein in a final volume of 120 μl; equilibration was for 1 h at 4° C. Thermostability was assessed by incubating the binding assay mix, with or without [^3H]-DHA at the specified temperature for 30 minutes; reactions were placed on ice and [^3H]-DHA added as necessary and equilibrated for a further hour. […] Radioactivity was counted on a Beckman LS6000 liquid scintillation counter and data were analyzed by nonlinear regression using Prism software (GraphPad).

[4] = Stability of βAR-m23 and βAR34-424 in different detergents (Ni-NTA partially purified); assay type: physicochemical
Method: FIGS. 6A-6C Stability of βAR-m23 and βAR34-424 in five different detergents. […] Assays were carried out as described in the Methods and the Tm is shown at the intersection between the curves and the discontinuous line. Results are from duplicate measurements in a representative experiment performed in parallel.
Membranes prepared from E. coli expressing βAR-m23 or βAR34-424 were solubilised in DDM, bound to Ni-NTA agarose then washed with either DDM, decylmaltoside (DM), octylglucoside (OG), lauryldimethylamine oxide (LDAO) or nonylglucoside (NG). […] In contrast, functional βAR-m23 was still present in all detergents and the Tm could be determined. As expected, the smaller detergents were considerably more denaturing than either DDM (Tm 52° C.) or DM (Tm 48° C.), with Tms of 25° C. (NG), 23° C. (LDAO) and 17° C. (OG). The difference in Tm between βAR-m23 and βAR34-424 is about 20° C., irrespective of whether the receptors were solubilised in either DDM or DM; […] . The selection strategy used for the generation of βAR-m23 was chosen deliberately to be based upon thermostability, because it is far simpler to apply than selecting for stability in detergents of increasing harshness.
Receptors were eluted in 2×100 μl of buffer (0.4 M NaCl, 1 mM EDTA, 250 mM imidazole pH 8, plus the relevant detergent). […] .
Single point binding assays contained 20 mM Tris pH 8, 0.4 M NaCl, 1 mM EDTA, 0.1% DDM (or corresponding detergent) with 50 nM [^3H]-DHA and 20-100 μg membrane protein in a final volume of 120 μl; equilibration was for 1 h at 4° C. Thermostability was assessed by incubating the binding assay mix, with or without [^3H]-DHA at the specified temperature for 30 minutes; reactions were placed on ice and [^3H]-DHA added as necessary and equilibrated for a further hour. Receptor-bound and free radioligand were separated by gel filtration as described previously. Non-specific binding was determined in the presence of 1 μM of s-propranolol. […] Radioactivity was counted on a Beckman LS6000 liquid scintillation counter and data were analyzed by nonlinear regression using Prism software (GraphPad).

[5] = Thermostability of solubilised adenosine A2a receptor and mutants (radioligand binding after or during heating); assay type: physicochemical; conditions: for Tm (° C.) − agonist / Tm (° C.) − antagonist / Tm (° C.) + agonist / Tm (° C.) + antagonist: 1% DDM (no glycerol), S.D. <1° C.; for Tm (° C.) − agonist / Tm (° C.) − antagonist: apo-state; for Tm (° C.) + agonist / Tm (° C.) + antagonist: ligand-occupied state; for thermostability measured with 3H-NECA (agonist): Ligand(−) format, binding after the heating step
In short: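 Solubilised A2aR mutants heated, then assayed for agonist and antagonist radioligand binding after the heating step (ligand(−) format); a ligand(+) format was also used. Thermostability expressed as Tm (° C), with ZM241385 bound where indicated.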

[6] = Stability of wild-type and mutant A2aR in different detergents; assay type: physicochemical
[7] = [3H]-DHA bound during the heating step
[8] = 0.3% NG, † = receptor too unstable to determine the Tm
[9] = 0.6% OG, † = receptor too unstable to determine the Tm

T1 sequence (P07700 34-424 R68S/M90V/C116L/Y227A/A282L/F327A/F338M): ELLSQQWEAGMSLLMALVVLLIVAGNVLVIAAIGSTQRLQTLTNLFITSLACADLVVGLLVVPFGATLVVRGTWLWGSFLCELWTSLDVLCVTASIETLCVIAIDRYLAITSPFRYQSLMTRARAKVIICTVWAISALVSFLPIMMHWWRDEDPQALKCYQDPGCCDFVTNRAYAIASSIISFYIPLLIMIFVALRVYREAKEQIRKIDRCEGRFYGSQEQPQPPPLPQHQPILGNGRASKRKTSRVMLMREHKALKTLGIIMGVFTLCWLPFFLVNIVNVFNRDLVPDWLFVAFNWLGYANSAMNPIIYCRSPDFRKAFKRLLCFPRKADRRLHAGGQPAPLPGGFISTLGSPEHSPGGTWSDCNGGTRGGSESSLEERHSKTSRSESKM

Molecule: 1-[4,6-propyl-^3H]-dihydroalprenolol [[^3H]-dihydroalprenolol]
- Kd (βAR-m23 [1]; membranes, n=2, read-out: KD of [3H]-dihydroalprenolol): 6.5 ± 0.2 nM
- Kd (βAR-m23 [1]; semipurified receptor, read-out: KD for [3H]-DHA binding): 12.5 nM

Molecule: C=CCc1ccccc1OC[C@@H](O)CNC(C)C [alprenolol, (−) alprenolol tartrate salt]
- EC50 (βAR-m23 [2]): 112 nM

Molecule: M90A: βAR34-424 point mutant M90A
- increase in Tm compared to βAR34-424 (native protein) [3]: 8 °C

Molecule: Y227A: βAR34-424 point mutant Y227A
- increase in Tm compared to βAR34-424 (native protein) [3]: 8 °C

Molecule: m4-7: βAR34-424 with G67A, G98A, V230A
- Tm (° C.) ([3]; Table 1): 38.0 ± 1.2 °C
- further increase in Tm on adding one mutation to the preceding mutant [3]: 2 °C

Molecule: m6-4: βAR34-424 with R68S, Y227A, A234L, A282L
- Tm (° C.) ([3]; Table 1): 41.6 ± 0.1 °C

Molecule: m6-5: βAR34-424 with R68S, A234L, A282L, A334L
- Tm (° C.) ([3]; Table 1): 41.9 ± 0.5 °C

Molecule: m6-9: βAR34-424 with R68S, Y227A, A234L, A282L, A334L
- Tm (° C.) ([3]; Table 1): 43.7 ± 0.4 °C

Molecule: m6-10: βAR34-424 with R68S, Y227A, A282L, A334L
- Tm (° C.) ([3]; Table 1): 47.4 ± 1.1 °C

Molecule: m6-11: βAR34-424 with R68S, A282L, A334L
- Tm (° C.) ([3]; Table 1): 39.1 ± 0.5 °C

Molecule: m7-1: βAR34-424 with M90V, A282L, F338M
- Tm (° C.) ([3]; Table 1): 43.0 ± 0.8 °C

Molecule: m7-2: βAR34-424 with M90V, A282L
- Tm (° C.) ([3]; Table 1): 38.9 ± 0.6 °C

Molecule: m7-5: βAR34-424 with M90V, Y227A
- increase in Tm compared to βAR34-424 (native protein) [3]: 13 °C
- Tm (° C.) ([3]; Table 1): 45.2 ± 1.0 °C

Molecule: m7-6: βAR34-424 with M90V, I129V
- Tm (° C.) ([3]; Table 1): 40.0 ± 0.6 °C

Molecule: m7-7: βAR34-424 with M90V, Y227A, F338M
- Tm (° C.) ([3]; Table 1): 45.2 ± 2.0 °C

Molecule: m10-4: βAR34-424 with R68S, M90V, V230A, A334L
- Tm (° C.) ([3]; Table 1): 46.9 ± 1.0 °C

Molecule: m10-8: βAR34-424 with R68S, M90V, V230A, F327A, A334L
- Tm (° C.) ([3]; Table 1): 47.3 ± 1.4 °C

Molecule: m17: βAR34-424 with R68S, M90V, Y227A, V230A, F327A, A334L
- Tm (° C.) ([3]; Table 2): 48.2 ± 1.4 °C

Molecule: m18: βAR34-424 with R68S, M90V, Y227A, V230A, A282L, F327A, F338M
- Tm (° C.) ([3]; Table 2): 49.6 °C

Molecule: m19: βAR34-424 with R68S, M90V, Y227A, A282L, F327A, F338M as printed (same as m23)
- Tm (° C.) ([3]; Table 2): 49.0 ± 0.8 °C

Molecule: m20: βAR34-424 with R68S, M90V, F327A, A334L
- Tm (° C.) ([3]; Table 2): 48.4 ± 0.7 °C

Molecule: m21: βAR34-424 with R68S, M90V, Y227A, F327A, A334L
- Tm (° C.) ([3]; Table 2): 47.0 ± 1.3 °C

Molecule: m23: βAR34-424 with R68S, M90V, Y227A, A282L, F327A, F338M
- Tm in DDM ([4]; DDM): 52 °C
- Tm in DM ([4]; DM (decylmaltoside)): 48 °C
- Tm in LDAO ([4]; LDAO): 23 °C
- Tm in NG ([4]; NG (nonylglucoside)): 25 °C
- Tm in OG ([4]; OG (octylglucoside)): 17 °C
- difference in Tm between βAR-m23 and βAR34-424 ([4]; solubilised in either DDM or DM): about 20 °C
- increase in Tm compared to βAR34-424 (native protein) [3]: 21 °C
- Tm (° C.) ([3]; Table 2): 52.8 °C and 52.8 ± 1.4 °C
- Tm with antagonist bound [3, 7]: 55 °C
- increase in Tm with bound antagonist versus without antagonist [3, 7]: 2 °C
- further increase in Tm on adding one mutation to the preceding mutant [3]: 3 °C

Molecule: wt: wild-type human adenosine A2a receptor (A2aR)
- Tm (° C.) − agonist [5]: 21 °C
- Tm (° C.) − antagonist [5]: 31 °C
- Tm (° C.) + agonist [5]: 29 °C
- Tm (° C.) + antagonist [5]: 32 °C
- Tm (ZM241385 bound) [5]: 31 °C
- Tm (° C.) Agonist-binding ([6]; 0.003% LDAO): 28 °C
- Tm (° C.) Antagonist-binding ([6]; 0.003% LDAO): 32 °C
- Tm (° C.) Agonist-binding ([6]; 0.006% FC12): 37 °C
- Tm (° C.) Antagonist-binding ([6]; 0.006% FC12): 43 °C
- Tm (° C.) Agonist-binding ([6]; 0.01% DDM): 27 °C
- Tm (° C.) Antagonist-binding ([6]; 0.01% DDM): 25 °C
- Tm (° C.) Agonist-binding ([6]; 0.1% DM): 23 °C
- Tm (° C.) Antagonist-binding ([6]; 0.1% DM): 10 °C
- Tm (° C.) Agonist-binding [6, 8]: †
- Tm (° C.) Antagonist-binding [6, 8]: †
- Tm (° C.) Agonist-binding ([6]; 0.3% NM): 22 °C
- Tm (° C.) Antagonist-binding ([6]; 0.3% NM): <4 °C
- Tm (° C.) Agonist-binding ([6]; 0.6% OG): <9 °C
- Tm (° C.) Antagonist-binding [6, 9]: †

B1: Rant 21: A2aR with A54L, T88A, V239A+K122A (protein, UniProt P29274 1-412, looked up, variant A54L T88A V239A K122A)
Adenosine receptor A2a: MPIMGSSVYITVELAIAVLAILGNVLVCWAVWLNSNLQNVTNYFVVSLAAADILVGVLAIPFAITISTGFCAACHGCLFIACFVLVLAQSSIFSLLAIAIDRYIAIRIPLRYNGLVTGTRAAGIIAICWVLSFAIGLTPMLGWNNCGQPKEGKNHSQGCGEGQVACLFEDVVPMNYMVYFNFFACVLVPLLLMLGVYLRIFLAARRQLKQMESQPLPGERARSTLQKEVHAAKSLAIIAGLFALCWLPLHIINCFTFFCPDCSHAPLWLMYLAIVLSHTNSVVNPFIYAYRIREFRQTFRKIIRSHVLRQQEPFKAAGTSARVLAAHGSDGEQVSLRLNGHPPGVWANGSAPHPERRPNGYALGLVSGGSAQESQGNTGLPDVELLSHELKGVCPEPPGLDDPLAQDGAGVS
- Tm (° C.) − antagonist [5]: 41 °C
- Tm (° C.) + antagonist [5]: 49 °C
- Tm (ZM241385 bound) [5]: 49 °C
- Tm (° C.) Antagonist-binding ([6]; 0.003% LDAO): 42 °C
- Tm (° C.) Antagonist-binding ([6]; 0.006% FC12): 49 °C
- Tm (° C.) Antagonist-binding ([6]; 0.01% DDM): 39 °C
- Tm (° C.) Antagonist-binding ([6]; 0.1% DM): 28 °C
- Tm (° C.) Antagonist-binding [6, 8]: 22 °C
- Tm (° C.) Antagonist-binding ([6]; 0.3% NM): 25 °C
- Tm (° C.) Antagonist-binding [6, 9]: 23 °C

B2: Rag 1: A2aR with A184L/R199A/L272A (protein, UniProt P29274 1-412, looked up, variant A184L R199A L272A)
Adenosine receptor A2a: B1 Adenosine receptor A2a with L54A, A88T, A122K, A184L, R199A, A239V, L272A
- Tm (° C.) − agonist [5]: 26 °C
- Tm (° C.) + agonist [5]: 34 °C

B3: Rant 5: A2aR with A54L/T88A/V239A (protein, UniProt P29274 1-412, looked up, variant A54L T88A V239A)
Adenosine receptor A2a: B1 Adenosine receptor A2a with A122K
- Tm (° C.) − antagonist [5]: 42 °C
- Tm (° C.) + antagonist [5]: 46 °C

B4: S213A: A2aR point mutant (protein, UniProt P29274 1-412, looked up, variant S213A)
Adenosine receptor A2a: B1 Adenosine receptor A2a with L54A, A88T, A122K, S213A, A239V
- thermostability measured with 3H-NECA (agonist) [5]: improved thermostability

B5: Q210A: A2aR point mutant (protein, UniProt P29274 1-412, looked up, variant Q210A)
Adenosine receptor A2a: B1 Adenosine receptor A2a with L54A, A88T, A122K, Q210A, A239V
- thermostability measured with 3H-NECA (agonist) [5]: improved thermostability
